This note sets out measurements from US20220411501A1 (INTERNATIONAL DRUG DEVELOPMENT BIOTECH, published 2022).

Substitutions are numbered along the chain they refer to.

To fix the notation:
B1: humanized antibody 36-5 Hz121 (antibody, human IgG1, V domains shown)
VH: QVQLVQSGAEVKKPGASVKVSCKASGYTFTSYWMNWVRQAPGQGLEWMGRIDPSDSEIHYNQKFKGRVTMTVDTSTSTAYMELSSLRSEDTAVYYCARDYGSDYYAMDYWGQGTLVTVSS
VL: QIVLTQSPAFQSVTPGEKVTITCSASQSVSYMHWYQQKSGTSPKLLIYSTSNLTSGVPSRFSGSGSGTDYTLTISSLEAEDAATYYCHQWSSYPFGGGTKVEIK
notes: The variable regions were cloned into vector p3U containing the human IgG1 constant region; also called H-36.5Hz30 + L-36.5Hz31
B2: humanized antibody 36-5 Hz128 (antibody, human IgG1, V domains shown)
VH: B1 VH with M48I
VL: B1 VL
notes: The variable regions were cloned into vector p3U containing the human IgG1 constant region; also called H-36.5Hz31 + L-36.5Hz31
B3: humanized antibody 36-5 Hz114 (antibody, human IgG1, V domains shown)
VH: B1 VH with G66D, R67K, V68A, M70L, T74K
VL: B1 VL
notes: The variable regions were cloned into expression vector p3U containing the human IgG1 constant region; also called H-36.5Hz27 + L-36.5Hz31
B4: ch36-05 chimeric monoclonal antibody (antibody, human IgG1, kappa, V domains shown)
VH: QVQLQQSGAELVKPGAPVKLSCKASGYTFTRYWMNWVKQRPGRGLEWIGRIDPSDSEIHYNQNFKDKATLTVDKSSSTAYIQLSSLTSEDSAVYYCARDYGSDYYAMDYWGQGTSVTVSS
VL: QIVLTQSPAIMSASLGEEITLTCSASSSVSYMHWYQQKSGTSPKLLIYSTSNLTSGVPSRFSGSGSGTFYSLTISSVEAEDAADYYCHQWSSYPFGGGTKLEIKR
notes: Murine VH + human IgG1 Fc; murine VL + human Kappa; also called chR036-05; chR036.05

In the first experiment the target is T1, CD117 (c-Kit, stem cell factor receptor) on HEL or TF1 human erythroleukemia cells (human, UniProt P10721 26-976).
T1 construct: whole, on cells
T1 sequence (P10721 26-976): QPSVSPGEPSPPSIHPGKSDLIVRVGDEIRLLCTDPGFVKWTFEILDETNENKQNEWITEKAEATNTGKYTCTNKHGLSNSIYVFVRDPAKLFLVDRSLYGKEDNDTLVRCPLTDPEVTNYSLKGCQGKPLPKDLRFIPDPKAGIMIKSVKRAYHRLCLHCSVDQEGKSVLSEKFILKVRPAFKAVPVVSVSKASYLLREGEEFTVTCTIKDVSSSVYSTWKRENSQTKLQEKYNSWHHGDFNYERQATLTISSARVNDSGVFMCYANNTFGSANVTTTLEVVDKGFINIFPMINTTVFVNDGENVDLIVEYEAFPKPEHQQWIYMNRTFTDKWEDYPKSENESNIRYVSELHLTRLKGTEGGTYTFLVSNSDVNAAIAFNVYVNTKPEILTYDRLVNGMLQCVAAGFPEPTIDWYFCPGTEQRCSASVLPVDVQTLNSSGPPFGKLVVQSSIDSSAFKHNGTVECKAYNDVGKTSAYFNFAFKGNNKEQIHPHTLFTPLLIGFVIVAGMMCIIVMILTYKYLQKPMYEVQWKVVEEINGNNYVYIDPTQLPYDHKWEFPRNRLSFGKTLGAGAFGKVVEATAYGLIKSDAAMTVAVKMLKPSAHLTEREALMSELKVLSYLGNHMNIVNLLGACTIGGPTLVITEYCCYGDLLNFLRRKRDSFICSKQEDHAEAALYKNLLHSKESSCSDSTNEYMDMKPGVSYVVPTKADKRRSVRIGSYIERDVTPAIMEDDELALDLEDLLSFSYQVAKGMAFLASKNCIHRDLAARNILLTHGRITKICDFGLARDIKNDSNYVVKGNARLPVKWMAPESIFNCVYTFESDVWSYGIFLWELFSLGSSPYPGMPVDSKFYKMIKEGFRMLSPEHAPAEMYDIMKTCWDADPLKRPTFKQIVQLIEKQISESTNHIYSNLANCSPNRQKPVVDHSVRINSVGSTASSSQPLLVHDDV
Briefly: flow cytometry on HEL cells; 1 µl/2.10^5 cells. How it is done: (§1) By flow cytometry, the humanized mAb staining was analyzed on HEL CD117 positive cell line. […] No staining was observed on the cell line CEM (CD117 negative, (data not shown).
For the molecule B1, the “% labelled HEL cells” value is 67% and the MFI came out at 228.

Turning to B2, the “% labelled HEL cells” value is 72% and the MFI was 240.

In the case of B3, the “% labelled HEL cells” value worked out at 66% and the MFI stood at 228.

For the molecule B4, the “% labelled HEL cells” value came out at 80% and the MFI was determined as 259.

In another experiment the target is T1, CD117 (c-Kit, stem cell factor …). Briefly: flow cytometry on HEL cells; 0.1 µl/2.10^5 cells. As for the experimental part:
as §1
In general terms: Flow cytometry measures light scatter and fluorescence of single cells or particles in a stream.
As to B1, the “% labelled HEL cells” value stood at 59% and the MFI stood at 210.

B2: the “% labelled HEL cells” value came to 61% and the MFI came out at 214.

As for B3, the “% labelled HEL cells” value is 64% and the MFI was 225.

Consider B4, for which the “% labelled HEL cells” value is 43% and the MFI was 259.

The target is the same in the next experiment. Description: flow cytometry on HEL cells; 100 µl/2.10^5 cells. How it is done: as §1
As to B1, the “% labelled HEL cells” value came out at 73% and the MFI is 241.

For the molecule B2, the “% labelled HEL cells” value is 94% and the MFI was 291.

Consider B3, for which the “% labelled HEL cells” value stood at 74% and the MFI amounted to 242.

On to B4, for which the “% labelled HEL cells” value is 80% and the MFI turned out to be 251.

The target is the same in the next experiment. Description: flow cytometry on HEL cells; 10 µl/2.10^5 cells. As for the experimental part:
as §1
Take B1: the “% labelled HEL cells” value amounted to 70% and the MFI worked out at 236.

On to B2, for which the “% labelled HEL cells” value was found to be 77% and the MFI came to 250.

In the case of B3, the “% labelled HEL cells” value came to 70% and the MFI amounted to 136.

With B4, the “% labelled HEL cells” value stood at 81% and the MFI came to 262.
